Assay results from patent US7378087.
One block for each substance: values may come before it.

Key:
[1] = target: human β2-microglobulin (human) (UniProt P61769); test: FACS on RMA cells; IFN +, peptide +, hβ2m - (no hβ2m added: background)
[2] = target: human β2-microglobulin (human) (UniProt P61769); test: FACS on RMA cells; IFN +, peptide -, hβ2m - (no hβ2m added: background)
[3] = target: human β2-microglobulin (human) (UniProt P61769); test: FACS on RMA cells; IFN -, peptide -, hβ2m - (no hβ2m added: background)
[4] = target: human β2-microglobulin (human) (UniProt P61769); test: FACS on RMA-S cells; IFN +, peptide +, hβ2m - (no hβ2m added: background)
[5] = target: human β2-microglobulin (human) (UniProt P61769); test: FACS on RMA-S cells; IFN +, peptide -, hβ2m - (no hβ2m added: background)
[6] = target: human β2-microglobulin (human) (UniProt P61769); test: FACS on RMA-S cells; IFN -, peptide -, hβ2m - (no hβ2m added: background)
[7] = target: human β2-microglobulin (human) (UniProt P61769); test: FACS on RMA cells; IFN +, peptide +, hβ2m + (hβ2m bound on the cell surface)
[8] = target: human β2-microglobulin (human) (UniProt P61769); test: FACS on RMA cells; IFN +, peptide -, hβ2m + (hβ2m bound on the cell surface)
[9] = target: human β2-microglobulin (human) (UniProt P61769); test: FACS on RMA cells; IFN -, peptide +, hβ2m + (hβ2m bound on the cell surface)
[10] = target: human β2-microglobulin (human) (UniProt P61769); test: FACS on RMA-S cells; IFN +, peptide +, hβ2m + (hβ2m bound on the cell surface)
[11] = target: human β2-microglobulin (human) (UniProt P61769); test: FACS on RMA-S cells; IFN +, peptide -, hβ2m + (hβ2m bound on the cell surface)
[12] = target: human β2-microglobulin (human) (UniProt P61769); test: FACS on RMA-S cells; IFN -, peptide +, hβ2m + (hβ2m bound on the cell surface)
[13] = target: H-2D^b MHC class I molecule (mouse) (UniProt P01899); test: FACS on RMA cells; IFN +, peptide +, hβ2m +
[14] = target: H-2D^b MHC class I molecule (mouse) (UniProt P01899); test: FACS on RMA cells; IFN +, peptide +, hβ2m -
[15] = target: H-2D^b MHC class I molecule (mouse) (UniProt P01899); test: FACS on RMA cells; IFN +, peptide -, hβ2m +
[16] = target: H-2D^b MHC class I molecule (mouse) (UniProt P01899); test: FACS on RMA cells; IFN +, peptide -, hβ2m -
[17] = target: H-2D^b MHC class I molecule (mouse) (UniProt P01899); test: FACS on RMA cells; IFN -, peptide +, hβ2m +
[18] = target: H-2D^b MHC class I molecule (mouse) (UniProt P01899); test: FACS on RMA cells; IFN -, peptide -, hβ2m -
[19] = target: H-2D^b MHC class I molecule (mouse) (UniProt P01899); test: FACS on RMA-S cells; IFN +, peptide +, hβ2m +
[20] = target: H-2D^b MHC class I molecule (mouse) (UniProt P01899); test: FACS on RMA-S cells; IFN +, peptide +, hβ2m -
[21] = target: H-2D^b MHC class I molecule (mouse) (UniProt P01899); test: FACS on RMA-S cells; IFN +, peptide -, hβ2m +
[22] = target: H-2D^b MHC class I molecule (mouse) (UniProt P01899); test: FACS on RMA-S cells; IFN +, peptide -, hβ2m -
[23] = target: H-2D^b MHC class I molecule (mouse) (UniProt P01899); test: FACS on RMA-S cells; IFN -, peptide +, hβ2m +
[24] = target: H-2D^b MHC class I molecule (mouse) (UniProt P01899); test: FACS on RMA-S cells; IFN -, peptide -, hβ2m -
[25] = target: H-2D^b MHC class I molecule (mouse) (UniProt P01899); test: FACS on CMT.64 cells; IFN +, peptide -, hβ2m -
[26] = target: H-2D^b MHC class I molecule (mouse) (UniProt P01899); test: FACS on CMT.64 cells; IFN -, peptide +, hβ2m +
[27] = target: H-2D^b MHC class I molecule (mouse) (UniProt P01899); test: FACS on CMT.64 cells; IFN -, peptide -, hβ2m -
[28] = target: H-2D^b MHC class I molecule (mouse) (UniProt P01899); test: FACS on CMT.64 cells; IFN * (so in the source), peptide +, hβ2m +
[29] = target: H-2D^b MHC class I molecule (mouse) (UniProt P01899); test: FACS on CMT.64 cells
[30] = target: H-2D^b MHC class I molecule (mouse) (UniProt P01899); test: FACS on CMT.64 cells treated with IFN-γ
[31] = target: H-2D^b MHC class I molecule (mouse) (UniProt P01899); test: FACS on CMT.1-4 cells (rTAP1 transfectant)
[32] = target: H-2D^b MHC class I molecule (mouse) (UniProt P01899); test: FACS on CMT.2-1 cells (rTAP2 transfectant)
[33] = target: H-2D^b MHC class I molecule (mouse) (UniProt P01899); test: FACS on CMT.1-10 cells (rTAP1 transfectant)
[34] = target: H-2D^b MHC class I molecule (mouse) (UniProt P01899); test: FACS on CMT.2-10 cells (rTAP2 transfectant)
[35] = target: H-2D^b MHC class I molecule (mouse) (UniProt P01899); test: FACS on CMT.12-21 cells (rTAP1,2 transfectant)
[36] = target: H-2D^b MHC class I molecule (mouse) (UniProt P01899); test: single-colour FACS on RMA-S cells (linear, 5000 events)
[37] = target: H-2D^b MHC class I molecule (mouse) (UniProt P01899); test: single-colour FACS on RMA-S.ptml cells (TAP-1 antisense)
[38] = target: H-2K^b MHC class I molecule (mouse) (UniProt P01901); test: FACS on CMT.64 cells
[39] = target: H-2K^b MHC class I molecule (mouse) (UniProt P01901); test: FACS on CMT.neo cells (vector control)
[40] = target: H-2K^b MHC class I molecule (mouse) (UniProt P01901); test: FACS on CMT.64 cells treated with IFN-γ
[41] = target: H-2K^b MHC class I molecule (mouse) (UniProt P01901); test: FACS on CMT.1-1 cells (rTAP1 transfectant)
[42] = target: H-2K^b MHC class I molecule (mouse) (UniProt P01901); test: FACS on CMT.1-4 cells (rTAP1 transfectant)
[43] = target: H-2K^b MHC class I molecule (mouse) (UniProt P01901); test: FACS on CMT.2-1 cells (rTAP2 transfectant)
[44] = target: H-2K^b MHC class I molecule (mouse) (UniProt P01901); test: FACS on CMT.1-10 cells (rTAP1 transfectant)
[45] = target: H-2K^b MHC class I molecule (mouse) (UniProt P01901); test: FACS on CMT.2-10 cells (rTAP2 transfectant)
[46] = target: H-2K^b MHC class I molecule (mouse) (UniProt P01901); test: FACS on CMT.12-21 cells (rTAP1,2 transfectant)
[47] = target: H-2K^b MHC class I molecule (mouse) (UniProt P01901); test: single-colour FACS on RMA-S cells (linear, 5000 events)
[48] = target: H-2K^b MHC class I molecule (mouse) (UniProt P01901); test: single-colour FACS on RMA-S.ptml cells (TAP-1 antisense)

Sequence of UniProt P01901 (P01901 22-305 limits assumed): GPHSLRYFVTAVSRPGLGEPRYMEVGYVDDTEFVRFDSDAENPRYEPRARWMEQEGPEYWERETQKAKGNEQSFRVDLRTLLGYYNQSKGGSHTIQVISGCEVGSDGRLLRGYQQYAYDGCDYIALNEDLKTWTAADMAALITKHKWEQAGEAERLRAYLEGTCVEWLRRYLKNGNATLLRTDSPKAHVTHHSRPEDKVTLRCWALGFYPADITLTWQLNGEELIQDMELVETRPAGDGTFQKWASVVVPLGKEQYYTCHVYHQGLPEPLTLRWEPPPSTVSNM
Sequence of UniProt P01899 (P01899 25-309 limits assumed): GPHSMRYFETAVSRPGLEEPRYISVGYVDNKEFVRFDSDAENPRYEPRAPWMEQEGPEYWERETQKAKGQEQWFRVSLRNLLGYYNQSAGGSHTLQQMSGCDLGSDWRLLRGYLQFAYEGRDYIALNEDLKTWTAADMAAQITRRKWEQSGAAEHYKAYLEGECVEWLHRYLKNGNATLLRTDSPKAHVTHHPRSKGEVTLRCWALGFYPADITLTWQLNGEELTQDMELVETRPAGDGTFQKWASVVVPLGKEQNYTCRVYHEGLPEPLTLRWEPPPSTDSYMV

fluorescence units (arbitrary fluorescence units) [1]: 4 | fluorescence units (arbitrary fluorescence units) [2]: 6 | fluorescence units (arbitrary fluorescence units) [3]: 1 | fluorescence units (arbitrary fluorescence units) [4]: 14 | fluorescence units (arbitrary fluorescence units) [5]: 14 | fluorescence units (arbitrary fluorescence units) [6]: 1 | fluorescence units (arbitrary fluorescence units) [7]: 606 | fluorescence units (arbitrary fluorescence units) [8]: 406 | fluorescence units (arbitrary fluorescence units) [9]: 274 | fluorescence units (arbitrary fluorescence units) [10]: 262 | fluorescence units (arbitrary fluorescence units) [11]: 76 | fluorescence units (arbitrary fluorescence units) [12]: 86
Substance: BBM.1 monoclonal antibody against human β2m

fluorescence units (arbitrary fluorescence units) [13]: 515 | fluorescence units (arbitrary fluorescence units) [14]: 449 | fluorescence units (arbitrary fluorescence units) [15]: 549 | fluorescence units (arbitrary fluorescence units) [16]: 430 | fluorescence units (arbitrary fluorescence units) [17]: 182 | fluorescence units (arbitrary fluorescence units) [18]: 173 | fluorescence units (arbitrary fluorescence units) [19]: 2 | fluorescence units (arbitrary fluorescence units) [20]: 1 | fluorescence units (arbitrary fluorescence units) [21]: 2 | fluorescence units (arbitrary fluorescence units) [22]: 4 | fluorescence units (arbitrary fluorescence units) [23]: 2 | fluorescence units (arbitrary fluorescence units) [24]: 2 | fluorescence units (arbitrary fluorescence units) [25]: 58 | fluorescence units (arbitrary fluorescence units) [26]: 5 | fluorescence units (arbitrary fluorescence units) [27]: 3 | fluorescence units (arbitrary fluorescence units) [28]: 53
Substance: 28-11-5s anti H-2 D^b (α1+α2) monoclonal antibody

immunofluorescence intensity (negative control subtracted) [29]: 18 | immunofluorescence intensity (negative control subtracted) [30]: 1100 | immunofluorescence intensity (negative control subtracted) [31]: 164 | immunofluorescence intensity (negative control subtracted) [32]: 10 | immunofluorescence intensity (negative control subtracted) [33]: 68 | immunofluorescence intensity (negative control subtracted) [34]: 39 | immunofluorescence intensity (negative control subtracted) [35]: 103 | MEAN FLUORESCENCE [36]: 130 | MEAN FLUORESCENCE [37]: 96.7
Substance: 28-14-8s anti H-2 D^b (α3) monoclonal antibody

immunofluorescence intensity (negative control subtracted) [38]: 0 | immunofluorescence intensity (negative control subtracted) [39]: 0.1 | immunofluorescence intensity (negative control subtracted) [40]: 590 | immunofluorescence intensity (negative control subtracted) [41]: 62 | immunofluorescence intensity (negative control subtracted) [42]: 64 | immunofluorescence intensity (negative control subtracted) [43]: 3 | immunofluorescence intensity (negative control subtracted) [44]: 36 | immunofluorescence intensity (negative control subtracted) [45]: 48 | immunofluorescence intensity (negative control subtracted) [46]: 22 | MEAN FLUORESCENCE [47]: 222 | MEAN FLUORESCENCE [48]: 149
Substance: Y-3 anti-H-2K^b monoclonal antibody
